Residue numbers refer to the chain shown, from its start.
Key:
[1] = target: T1, MITF DNA-binding domain WT (bHLH-LZ) (mouse? (MITF mouse cDNA stated for …, UniProt Q08874 287-403)); assay: fluorescence anisotropy; FA: 10 mM Tris/HCl pH 7.5, 300 mM NaCl, 0.01% Triton X-100, 0.1 mg/mL BSA, 1.33 nM DNA, 25 C, 5 min; EMSA: 25 mM HEPES pH 7.4, 150 mM KCl, 10% glycerol, 200 ug/ml BSA, 5 uM DTT, 20 min, 6% native gel; conditions: protein: recombinant; tags: His (Ni-NTA purified; pETM-11 vector); chain copies: 2; label: 3'-fluorescein on strand 1; blunt
T1 sequence (Q08874 287-403): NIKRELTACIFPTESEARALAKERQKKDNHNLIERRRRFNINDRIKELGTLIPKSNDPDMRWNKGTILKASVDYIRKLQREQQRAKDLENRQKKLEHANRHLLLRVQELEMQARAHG

[2] = target: T2, MITF DNA-binding domain K243R (mouse? (MITF mouse cDNA stated for …, UniProt Q08874 287-403, K350R)); assay: as above; conditions: protein: recombinant; tags: His (Ni-NTA purified; pETM-11 vector); chain copies: 2; label: 3'-fluorescein on strand 1; blunt
T2 sequence (Q08874 287-403 K350R): as the sequence (Q08874 287-403) above, with K64R counted along it

[3] = target: T3, MITF DNA-binding domain K243Q (mouse? (MITF mouse cDNA stated for …, UniProt Q08874 287-403, K350Q)); assay: as above; conditions: protein: recombinant; tags: His (Ni-NTA purified; pETM-11 vector); chain copies: 2; label: 3'-fluorescein on strand 1; blunt
T3 sequence (Q08874 287-403 K350Q): as the sequence (Q08874 287-403) above, with K64Q counted along it

[4] = target: T3, MITF DNA-binding domain K243Q; assay: as above; conditions: protein: recombinant; tags: His (Ni-NTA purified; pETM-11 vector); chain copies: 2; label: 3'-fluorescein on strand 1; blunt; remark: listed apart in the source
[5] = target: T2, MITF DNA-binding domain K243R; assay: competition; competing N5 in EMSA; FA: 10 mM Tris/HCl pH 7.5, 300 mM NaCl, 0.01% Triton X-100, 0.1 mg/mL BSA, 1.33 nM DNA, 25 C, 5 min; EMSA: 25 mM HEPES pH 7.4, 150 mM KCl, 10% glycerol, 200 ug/ml BSA, 5 uM DTT, 20 min, 6% native gel; conditions: protein: recombinant; tags: His (Ni-NTA purified; pETM-11 vector); chain copies: 2; blunt
[6] = target: T3, MITF DNA-binding domain K243Q; assay: as above; conditions: protein: recombinant; tags: His (Ni-NTA purified; pETM-11 vector); chain copies: 2; blunt
[7] = target: T1, MITF DNA-binding domain WT (bHLH-LZ); assay: as above; conditions: protein: recombinant; tags: His (Ni-NTA purified; pETM-11 vector); chain copies: 2; blunt
[8] = target: T2, MITF DNA-binding domain K243R; assay: competition; competing N5 in EMSA; low-affinity motif; FA: 10 mM Tris/HCl pH 7.5, 300 mM NaCl, 0.01% Triton X-100, 0.1 mg/mL BSA, 1.33 nM DNA, 25 C, 5 min; EMSA: 25 mM HEPES pH 7.4, 150 mM KCl, 10% glycerol, 200 ug/ml BSA, 5 uM DTT, 20 min, 6% native gel; conditions: protein: recombinant; tags: His (Ni-NTA purified; pETM-11 vector); chain copies: 2; blunt
[9] = target: T1, MITF DNA-binding domain WT (bHLH-LZ); assay: as above; conditions: protein: recombinant; tags: His (Ni-NTA purified; pETM-11 vector); chain copies: 2; blunt
[10] = target: T3, MITF DNA-binding domain K243Q; assay: fluorescence anisotropy; FA: 10 mM Tris/HCl pH 7.5, 300 mM NaCl, 0.01% Triton X-100, 0.1 mg/mL BSA, 1.33 nM DNA, 25 C, 5 min; EMSA: 25 mM HEPES pH 7.4, 150 mM KCl, 10% glycerol, 200 ug/ml BSA, 5 uM DTT, 20 min, 6% native gel; conditions: protein: recombinant; tags: His (Ni-NTA purified; pETM-11 vector); chain copies: 2; label: 3'-fluorescein on strand 1; blunt; remark: listed apart in the source

B1: Consensus CLEAR box FA probe (dsDNA)
DNA 1: GAGATCACGTGATGAC
DNA 2: GTCATCACGTGATCTC
[1]
  binding result: binds
[2]
  binding signal: ~4 fold lower affinity than WT protein on same site
[3]
  binding signal: ~7 fold lower affinity than WT protein on same site

B2: M-box FA probe (dsDNA)
DNA 1: GAGATCATGTGTTGAC
DNA 2: GTCAACACATGATCTC
[2]
  binding signal: ~4 fold lower affinity than WT protein on same site
[4]
  binding signal: 35 fold lower affinity than WT protein on same site

B3: TCACGTGA cold competitor (dsDNA)
DNA 1: CTAGACTTGTGGAGATCACGTGATGACTTCCTGATTCCT
DNA 2: AGGAATCAGGAAGTCATCACGTGATCTCCACAAGTCTAG
[5]
  binding result: binds
[6]
  binding result: binds
[7]
  binding result: binds

B4: TCACGTTA cold competitor (dsDNA)
DNA 1: B3 DNA 1 with G22T
DNA 2: B3 DNA 2 with C18A
[6]
  binding result: no binding
[8]
  binding result: binds
[9]
  binding result: binds

B5: E-box FA probe (dsDNA)
DNA 1: GAGACCACGTGTTGAC
DNA 2: GTCAACACGTGGTCTC
[2]
  binding signal: ~4 fold lower affinity than WT protein on same site
[10]
  binding signal: 21 fold lower affinity than WT protein on same site

Reference: publication PMC7427332, “Tuning Transcription Factor Availability through Acetylation-Mediated Genomic Redistribution”
